# T1: FcγRIIa H (human, UniProt P12318 34-217)
# T1 construct: extracellular domain; also called FcgRIIa H type; 2aH; not shown: His tag at the C terminus
# T1 sequence (looked up): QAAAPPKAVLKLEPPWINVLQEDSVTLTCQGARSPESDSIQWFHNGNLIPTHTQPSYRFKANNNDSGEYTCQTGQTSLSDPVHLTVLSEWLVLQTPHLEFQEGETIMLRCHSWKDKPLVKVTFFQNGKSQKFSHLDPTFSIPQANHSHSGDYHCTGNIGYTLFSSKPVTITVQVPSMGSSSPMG
# B1: GpH7-B3 variant I332_02A/GpL16-k0 (antibody, human IgG1, kappa)
# heavy: not shown
# light: DIVMTQSPLSLPVTPGEPASISCQASESLVHSNRNTYLHWYLQKPGQSPQLLIYKVSNRFSGVPDRFSGSGSGTDFTLKISRVEAEDVGVYYCSQNTHVPPTFGQGTKVEIERTVAAPSVFIFPPSDEQLKSGTASVVCLLNNFYPREAKVQWKVDNALQSGNSQESVTEQDSKDSTYSLSSTLTLSKADYEKHKVYACEVTHQGLSSPVTKSFNRGEC
# notes: also called Ho Ab I332_02A
# B2: GpH7-B3 variant A330_12R/GpL16-k0 (antibody, human IgG1, kappa)
# heavy: not shown
# light: B1 light
# notes: also called Ho Ab A330_12R
# B3: GpH7-B3 variant G236_03V/GpL16-k0 (antibody, human IgG1, kappa)
# heavy: not shown
# light: B1 light
# notes: also called Ho Ab G236_03V
# B4: GpH7-B3 variant G236_07I/GpL16-k0 (antibody, human IgG1, kappa)
# heavy: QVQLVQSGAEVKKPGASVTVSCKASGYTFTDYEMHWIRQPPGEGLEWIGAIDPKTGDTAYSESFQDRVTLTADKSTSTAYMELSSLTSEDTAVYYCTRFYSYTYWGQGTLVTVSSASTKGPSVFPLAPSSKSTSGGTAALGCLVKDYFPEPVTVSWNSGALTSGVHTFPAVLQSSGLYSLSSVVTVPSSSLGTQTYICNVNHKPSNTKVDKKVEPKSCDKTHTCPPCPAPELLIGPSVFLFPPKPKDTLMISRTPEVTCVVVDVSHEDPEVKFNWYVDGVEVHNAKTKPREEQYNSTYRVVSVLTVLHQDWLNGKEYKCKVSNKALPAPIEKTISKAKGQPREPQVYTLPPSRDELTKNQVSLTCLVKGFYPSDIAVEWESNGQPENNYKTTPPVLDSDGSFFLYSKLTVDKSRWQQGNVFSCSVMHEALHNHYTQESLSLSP
# light: B1 light
# notes: also called Ho Ab G236_07I
# B5: GpH7-B3 variant G236_10E/GpL16-k0 (antibody, human IgG1, kappa)
# heavy: not shown
# light: B1 light
# notes: also called Ho Ab G236_10E
# B6: GpH7-B3 variant H268_09D/GpL16-k0 (antibody, human IgG1, kappa)
# heavy: not shown
# light: B1 light
# notes: also called Ho Ab H268_09D
# B7: GpH7-B3 variant H268_10E/GpL16-k0 (antibody, human IgG1, kappa)
# heavy: not shown
# light: B1 light
# notes: also called Ho Ab H268_10E
# B8: GpH7-B3 variant H268_13S/GpL16-k0 (antibody, human IgG1, kappa)
# heavy: not shown
# light: B1 light
# notes: also called Ho Ab H268_13S
# B9: GpH7-B3 variant H268_18N/GpL16-k0 (antibody, human IgG1, kappa)
# heavy: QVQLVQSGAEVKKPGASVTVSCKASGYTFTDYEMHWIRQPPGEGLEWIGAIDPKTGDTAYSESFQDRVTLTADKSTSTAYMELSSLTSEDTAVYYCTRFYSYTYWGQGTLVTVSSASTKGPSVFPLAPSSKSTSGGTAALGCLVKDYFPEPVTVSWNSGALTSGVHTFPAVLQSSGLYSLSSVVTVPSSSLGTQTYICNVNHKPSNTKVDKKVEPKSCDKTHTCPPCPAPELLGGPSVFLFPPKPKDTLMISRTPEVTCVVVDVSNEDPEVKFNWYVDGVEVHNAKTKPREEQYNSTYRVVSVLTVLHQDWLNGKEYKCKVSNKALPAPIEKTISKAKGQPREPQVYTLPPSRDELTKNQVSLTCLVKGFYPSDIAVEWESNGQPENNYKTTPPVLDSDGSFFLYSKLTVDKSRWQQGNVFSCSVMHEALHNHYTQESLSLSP
# light: B1 light
# notes: also called Ho Ab H268_18N
# B10: GpH7-B3 variant I332_03V/GpL16-k0 (antibody, human IgG1, kappa)
# heavy: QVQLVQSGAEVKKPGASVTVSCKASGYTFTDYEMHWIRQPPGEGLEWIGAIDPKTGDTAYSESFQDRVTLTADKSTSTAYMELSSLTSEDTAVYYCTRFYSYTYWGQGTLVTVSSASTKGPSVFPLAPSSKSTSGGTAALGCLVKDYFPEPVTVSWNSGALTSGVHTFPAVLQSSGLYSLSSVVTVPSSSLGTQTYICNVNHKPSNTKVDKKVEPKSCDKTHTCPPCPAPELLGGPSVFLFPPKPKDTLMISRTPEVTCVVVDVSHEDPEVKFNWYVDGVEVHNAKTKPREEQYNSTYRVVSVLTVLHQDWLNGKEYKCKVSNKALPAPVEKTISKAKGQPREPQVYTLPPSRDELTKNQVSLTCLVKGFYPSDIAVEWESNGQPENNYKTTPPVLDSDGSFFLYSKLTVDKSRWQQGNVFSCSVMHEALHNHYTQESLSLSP
# light: B1 light
# notes: also called Ho Ab I332_03V
# B11: GpH7-B3 variant I332_04F/GpL16-k0 (antibody, human IgG1, kappa)
# heavy: not shown
# light: B1 light
# notes: also called Ho Ab I332_04F
# B12: GpH7-B3 variant I332_06M/GpL16-k0 (antibody, human IgG1, kappa)
# heavy: not shown
# light: B1 light
# notes: also called Ho Ab I332_06M
# B13: GpH7-B3 variant I332_09D/GpL16-k0 (antibody, human IgG1, kappa)
# heavy: not shown
# light: B1 light
# notes: also called Ho Ab I332_09D
# B14: GpH7-B3 variant I332_10E/GpL16-k0 (antibody, human IgG1, kappa)
# heavy: not shown
# light: B1 light
# notes: also called Ho Ab I332_10E
# B15: GpH7-B3 variant I332_13S/GpL16-k0 (antibody, human IgG1, kappa)
# heavy: not shown
# light: B1 light
# notes: also called Ho Ab I332_13S
# B16: GpH7-B3 variant I332_14T/GpL16-k0 (antibody, human IgG1, kappa)
# heavy: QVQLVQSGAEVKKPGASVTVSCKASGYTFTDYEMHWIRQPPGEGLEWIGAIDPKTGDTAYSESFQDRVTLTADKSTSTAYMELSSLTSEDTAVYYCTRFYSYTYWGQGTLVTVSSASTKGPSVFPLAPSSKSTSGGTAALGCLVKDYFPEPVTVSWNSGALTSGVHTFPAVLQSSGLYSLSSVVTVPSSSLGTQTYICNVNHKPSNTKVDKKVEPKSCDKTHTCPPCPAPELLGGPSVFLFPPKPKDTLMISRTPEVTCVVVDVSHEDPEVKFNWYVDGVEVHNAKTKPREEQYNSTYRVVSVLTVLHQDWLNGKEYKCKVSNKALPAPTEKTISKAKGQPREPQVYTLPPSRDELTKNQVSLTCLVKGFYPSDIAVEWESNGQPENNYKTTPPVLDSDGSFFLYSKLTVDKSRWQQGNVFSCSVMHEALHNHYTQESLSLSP
# light: B1 light
# notes: also called Ho Ab I332_14T
# B17: GpH7-B3 variant I332_15Y/GpL16-k0 (antibody, human IgG1, kappa)
# heavy: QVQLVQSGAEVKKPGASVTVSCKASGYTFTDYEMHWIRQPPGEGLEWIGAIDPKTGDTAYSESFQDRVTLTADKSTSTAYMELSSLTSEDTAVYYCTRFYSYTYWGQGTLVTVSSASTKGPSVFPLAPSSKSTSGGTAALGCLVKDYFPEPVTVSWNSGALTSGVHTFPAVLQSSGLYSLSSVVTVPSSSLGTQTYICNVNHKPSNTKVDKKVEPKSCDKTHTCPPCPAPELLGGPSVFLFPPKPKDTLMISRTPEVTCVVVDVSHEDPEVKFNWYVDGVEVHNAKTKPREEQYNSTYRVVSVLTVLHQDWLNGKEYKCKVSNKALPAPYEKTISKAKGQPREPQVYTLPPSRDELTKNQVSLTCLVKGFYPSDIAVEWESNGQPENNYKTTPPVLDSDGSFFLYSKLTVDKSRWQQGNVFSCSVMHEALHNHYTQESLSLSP
# light: B1 light
# notes: also called Ho Ab I332_15Y
# B18: GpH7-B3 variant I332_16H/GpL16-k0 (antibody, human IgG1, kappa)
# heavy: not shown
# light: B1 light
# notes: also called Ho Ab I332_16H
# B19: GpH7-B3 variant I332_18N/GpL16-k0 (antibody, human IgG1, kappa)
# heavy: not shown
# light: B1 light
# notes: also called Ho Ab I332_18N
# B20: GpH7-B3 variant I332_19Q/GpL16-k0 (antibody, human IgG1, kappa)
# heavy: not shown
# light: B1 light
# notes: also called Ho Ab I332_19Q
# B21: GpH7-B3 variant I336_06M/GpL16-k0 (antibody, human IgG1, kappa)
# heavy: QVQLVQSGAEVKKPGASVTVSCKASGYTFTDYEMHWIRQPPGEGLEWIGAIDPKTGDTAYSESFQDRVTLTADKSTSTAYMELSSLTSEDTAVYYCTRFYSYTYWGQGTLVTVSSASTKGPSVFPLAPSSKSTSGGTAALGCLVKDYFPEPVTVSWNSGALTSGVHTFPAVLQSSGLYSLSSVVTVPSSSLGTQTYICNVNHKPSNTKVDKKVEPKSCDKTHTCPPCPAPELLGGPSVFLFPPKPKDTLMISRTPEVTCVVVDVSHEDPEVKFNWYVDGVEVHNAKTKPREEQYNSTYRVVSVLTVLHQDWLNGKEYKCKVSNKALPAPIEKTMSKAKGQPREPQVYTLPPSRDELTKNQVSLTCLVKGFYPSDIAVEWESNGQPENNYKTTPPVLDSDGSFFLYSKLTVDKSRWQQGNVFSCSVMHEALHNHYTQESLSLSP
# light: B1 light
# notes: also called Ho Ab I336_06M
# B22: GpH7-B3 variant I336_08L/GpL16-k0 (antibody, human IgG1, kappa)
# heavy: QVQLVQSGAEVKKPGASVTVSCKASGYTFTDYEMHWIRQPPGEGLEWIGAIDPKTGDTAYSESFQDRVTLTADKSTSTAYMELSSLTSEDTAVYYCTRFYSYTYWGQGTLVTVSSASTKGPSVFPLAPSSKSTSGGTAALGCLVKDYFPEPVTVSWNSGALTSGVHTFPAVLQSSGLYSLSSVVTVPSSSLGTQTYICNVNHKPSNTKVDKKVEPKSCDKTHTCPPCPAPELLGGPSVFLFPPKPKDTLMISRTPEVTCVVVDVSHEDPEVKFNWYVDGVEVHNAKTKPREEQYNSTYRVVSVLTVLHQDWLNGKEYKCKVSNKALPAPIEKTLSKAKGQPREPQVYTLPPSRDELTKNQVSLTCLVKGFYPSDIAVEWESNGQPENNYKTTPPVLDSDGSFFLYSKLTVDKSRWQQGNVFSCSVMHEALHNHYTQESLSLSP
# light: B1 light
# notes: also called Ho Ab I336_08L
# B23: GpH7-B3 variant K326_06M/GpL16-k0 (antibody, human IgG1, kappa)
# heavy: not shown
# light: B1 light
# notes: also called Ho Ab K326_06M
# B24: GpH7-B3 variant K326_09D/GpL16-k0 (antibody, human IgG1, kappa)
# heavy: not shown
# light: B1 light
# notes: also called Ho Ab K326_09D
# B25: GpH7-B3 variant K326_10E/GpL16-k0 (antibody, human IgG1, kappa)
# heavy: not shown
# light: B1 light
# notes: also called Ho Ab K326_10E
# B26: GpH7-B3 variant K326_14T/GpL16-k0 (antibody, human IgG1, kappa)
# heavy: not shown
# light: B1 light
# notes: also called Ho Ab K326_14T
# B27: GpH7-B3 variant K326_19Q/GpL16-k0 (antibody, human IgG1, kappa)
# heavy: not shown
# light: B1 light
# notes: also called Ho Ab K326_19Q
# B28: GpH7-B3 variant K334_03V/GpL16-k0 (antibody, human IgG1, kappa)
# heavy: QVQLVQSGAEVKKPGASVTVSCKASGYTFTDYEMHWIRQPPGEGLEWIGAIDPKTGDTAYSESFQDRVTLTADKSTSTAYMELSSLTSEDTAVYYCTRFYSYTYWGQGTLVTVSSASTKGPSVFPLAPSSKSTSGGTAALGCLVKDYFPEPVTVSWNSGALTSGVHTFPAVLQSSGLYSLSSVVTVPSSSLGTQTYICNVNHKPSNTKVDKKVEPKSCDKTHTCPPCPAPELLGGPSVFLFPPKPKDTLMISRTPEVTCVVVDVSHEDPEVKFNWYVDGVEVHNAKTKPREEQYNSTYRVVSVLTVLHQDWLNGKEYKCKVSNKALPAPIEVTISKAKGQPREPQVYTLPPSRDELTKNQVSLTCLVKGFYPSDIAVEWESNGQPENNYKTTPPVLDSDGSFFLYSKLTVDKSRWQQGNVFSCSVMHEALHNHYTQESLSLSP
# light: B1 light
# notes: also called Ho Ab K334_03V
# B29: GpH7-B3 variant K334_04F/GpL16-k0 (antibody, human IgG1, kappa)
# heavy: not shown
# light: B1 light
# notes: also called Ho Ab K334_04F
# B30: GpH7-B3 variant K334_07I/GpL16-k0 (antibody, human IgG1, kappa)
# heavy: not shown
# light: B1 light
# notes: also called Ho Ab K334_07I
# B31: GpH7-B3 variant K334_08L/GpL16-k0 (antibody, human IgG1, kappa)
# heavy: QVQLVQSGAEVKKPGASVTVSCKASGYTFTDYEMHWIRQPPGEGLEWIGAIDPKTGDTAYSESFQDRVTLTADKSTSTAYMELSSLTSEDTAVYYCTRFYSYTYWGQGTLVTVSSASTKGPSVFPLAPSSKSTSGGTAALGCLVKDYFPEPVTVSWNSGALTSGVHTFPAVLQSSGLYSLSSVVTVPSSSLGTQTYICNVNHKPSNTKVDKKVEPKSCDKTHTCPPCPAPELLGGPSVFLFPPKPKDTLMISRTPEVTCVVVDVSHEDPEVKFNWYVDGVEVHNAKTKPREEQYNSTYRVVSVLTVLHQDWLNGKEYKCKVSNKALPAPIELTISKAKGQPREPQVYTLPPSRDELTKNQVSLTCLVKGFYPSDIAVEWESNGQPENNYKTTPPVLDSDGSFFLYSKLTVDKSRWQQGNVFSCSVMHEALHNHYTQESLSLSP
# light: B1 light
# notes: also called Ho Ab K334_08L
# B32: GpH7-B3 variant K334_14T/GpL16-k0 (antibody, human IgG1, kappa)
# heavy: not shown
# light: B1 light
# notes: also called Ho Ab K334_14T
# B33: GpH7-B3 variant K334_15Y/GpL16-k0 (antibody, human IgG1, kappa)
# heavy: not shown
# light: B1 light
# notes: also called Ho Ab K334_15Y
# B34: GpH7-B3 variant K334_16H/GpL16-k0 (antibody, human IgG1, kappa)
# heavy: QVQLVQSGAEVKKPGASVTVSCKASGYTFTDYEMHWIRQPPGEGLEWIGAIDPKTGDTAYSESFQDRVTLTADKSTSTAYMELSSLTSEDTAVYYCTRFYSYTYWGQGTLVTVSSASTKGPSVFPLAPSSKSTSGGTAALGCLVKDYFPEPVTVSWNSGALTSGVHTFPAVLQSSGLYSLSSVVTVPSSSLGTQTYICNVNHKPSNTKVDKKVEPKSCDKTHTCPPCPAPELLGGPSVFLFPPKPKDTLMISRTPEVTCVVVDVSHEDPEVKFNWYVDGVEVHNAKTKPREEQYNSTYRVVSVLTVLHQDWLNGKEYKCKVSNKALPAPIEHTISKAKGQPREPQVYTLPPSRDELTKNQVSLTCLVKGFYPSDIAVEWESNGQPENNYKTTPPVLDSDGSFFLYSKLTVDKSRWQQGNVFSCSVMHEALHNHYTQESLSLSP
# light: B1 light
# notes: also called Ho Ab K334_16H
# B35: GpH7-B3 variant L235_20W/GpL16-k0 (antibody, human IgG1, kappa)
# heavy: not shown
# light: B1 light
# notes: also called Ho Ab L235_20W
# B36: GpH7-B3 variant L328_02A/GpL16-k0 (antibody, human IgG1, kappa)
# heavy: not shown
# light: B1 light
# notes: also called Ho Ab L328_02A
# B37: GpH7-B3 variant L328_06M/GpL16-k0 (antibody, human IgG1, kappa)
# heavy: not shown
# light: B1 light
# notes: also called Ho Ab L328_06M
# B38: GpH7-B3 variant L328_13S/GpL16-k0 (antibody, human IgG1, kappa)
# heavy: not shown
# light: B1 light
# notes: also called Ho Ab L328_13S
# B39: GpH7-B3 variant L328_14T/GpL16-k0 (antibody, human IgG1, kappa)
# heavy: not shown
# light: B1 light
# notes: also called Ho Ab L328_14T
# B40: GpH7-B3 variant P271_01G/GpL16-k0 (antibody, human IgG1, kappa)
# heavy: not shown
# light: B1 light
# notes: also called Ho Ab P271_01G
# B41: GpH7-B3 variant Q295_05P/GpL16-k0 (antibody, human IgG1, kappa)
# heavy: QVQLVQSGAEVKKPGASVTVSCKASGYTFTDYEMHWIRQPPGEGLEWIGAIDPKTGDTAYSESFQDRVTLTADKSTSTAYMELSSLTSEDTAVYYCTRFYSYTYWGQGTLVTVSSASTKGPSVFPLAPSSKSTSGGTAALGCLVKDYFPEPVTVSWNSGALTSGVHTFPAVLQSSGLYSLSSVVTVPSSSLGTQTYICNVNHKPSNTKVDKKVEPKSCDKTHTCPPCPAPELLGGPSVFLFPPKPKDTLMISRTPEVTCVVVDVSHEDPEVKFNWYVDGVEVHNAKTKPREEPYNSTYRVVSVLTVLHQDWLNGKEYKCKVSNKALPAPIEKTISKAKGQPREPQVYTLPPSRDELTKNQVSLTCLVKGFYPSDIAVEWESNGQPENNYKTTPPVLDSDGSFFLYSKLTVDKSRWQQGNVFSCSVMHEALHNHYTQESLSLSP
# light: B1 light
# notes: also called Ho Ab Q295_05P
# B42: GpH7-B3 variant Q295_07I/GpL16-k0 (antibody, human IgG1, kappa)
# heavy: not shown
# light: B1 light
# notes: also called Ho Ab Q295_07I
# B43: GpH7-B3 variant S239_09D/GpL16-k0 (antibody, human IgG1, kappa)
# heavy: not shown
# light: B1 light
# notes: also called Ho Ab S239_09D
# B44: GpH7-B3 variant S267_02A/GpL16-k0 (antibody, human IgG1, kappa)
# heavy: not shown
# light: B1 light
# notes: also called Ho Ab S267_02A
# Biological target: T1, FcγRIIa H
# Assay: SPR Biacore, relative binding
row,Binder,Ho/Con_2aH
1,B1,119 % of GpH7-B3/GpL16-k0 (=100)
2,B2,110 % of GpH7-B3/GpL16-k0 (=100)
3,B3,111 % of GpH7-B3/GpL16-k0 (=100)
4,B4,101 % of GpH7-B3/GpL16-k0 (=100)
5,B5,122 % of GpH7-B3/GpL16-k0 (=100)
6,B6,136 % of GpH7-B3/GpL16-k0 (=100)
7,B7,126 % of GpH7-B3/GpL16-k0 (=100)
8,B8,114 % of GpH7-B3/GpL16-k0 (=100)
9,B9,110 % of GpH7-B3/GpL16-k0 (=100)
10,B10,106 % of GpH7-B3/GpL16-k0 (=100)
11,B11,111 % of GpH7-B3/GpL16-k0 (=100)
12,B12,114 % of GpH7-B3/GpL16-k0 (=100)
13,B13,130 % of GpH7-B3/GpL16-k0 (=100)
14,B14,117 % of GpH7-B3/GpL16-k0 (=100)
15,B15,121 % of GpH7-B3/GpL16-k0 (=100)
16,B16,125 % of GpH7-B3/GpL16-k0 (=100)
17,B17,126 % of GpH7-B3/GpL16-k0 (=100)
18,B18,119 % of GpH7-B3/GpL16-k0 (=100)
19,B19,118 % of GpH7-B3/GpL16-k0 (=100)
20,B20,114 % of GpH7-B3/GpL16-k0 (=100)
21,B21,100 % of GpH7-B3/GpL16-k0 (=100)
22,B22,101 % of GpH7-B3/GpL16-k0 (=100)

row,Binder,Ho/Con_2aH
1,B23,101 % of GpH7-B3/GpL16-k0 (=100)
2,B24,113 % of GpH7-B3/GpL16-k0 (=100)
3,B25,101 % of GpH7-B3/GpL16-k0 (=100)
4,B26,118 % of GpH7-B3/GpL16-k0 (=100)
5,B27,100 % of GpH7-B3/GpL16-k0 (=100)
6,B28,111 % of GpH7-B3/GpL16-k0 (=100)
7,B29,103 % of GpH7-B3/GpL16-k0 (=100)
8,B30,116 % of GpH7-B3/GpL16-k0 (=100)
9,B31,103 % of GpH7-B3/GpL16-k0 (=100)
10,B32,105 % of GpH7-B3/GpL16-k0 (=100)
11,B33,110 % of GpH7-B3/GpL16-k0 (=100)
12,B34,101 % of GpH7-B3/GpL16-k0 (=100)
13,B35,112 % of GpH7-B3/GpL16-k0 (=100)
14,B36,134 % of GpH7-B3/GpL16-k0 (=100)
15,B37,100 % of GpH7-B3/GpL16-k0 (=100)
16,B38,131 % of GpH7-B3/GpL16-k0 (=100)
17,B39,110 % of GpH7-B3/GpL16-k0 (=100)
18,B40,110 % of GpH7-B3/GpL16-k0 (=100)
19,B41,106 % of GpH7-B3/GpL16-k0 (=100)
20,B42,108 % of GpH7-B3/GpL16-k0 (=100)
21,B43,112 % of GpH7-B3/GpL16-k0 (=100)
22,B44,120 % of GpH7-B3/GpL16-k0 (=100)

# Source: patent US20180155451A1 (published 2018)
